Measured values: publication PMC10516644

Biological target: MSL2-FLAG (Drosophila) (UniProt P50534)
Test: co-IP

Chain of UniProt P50534 (P50534 whole entry): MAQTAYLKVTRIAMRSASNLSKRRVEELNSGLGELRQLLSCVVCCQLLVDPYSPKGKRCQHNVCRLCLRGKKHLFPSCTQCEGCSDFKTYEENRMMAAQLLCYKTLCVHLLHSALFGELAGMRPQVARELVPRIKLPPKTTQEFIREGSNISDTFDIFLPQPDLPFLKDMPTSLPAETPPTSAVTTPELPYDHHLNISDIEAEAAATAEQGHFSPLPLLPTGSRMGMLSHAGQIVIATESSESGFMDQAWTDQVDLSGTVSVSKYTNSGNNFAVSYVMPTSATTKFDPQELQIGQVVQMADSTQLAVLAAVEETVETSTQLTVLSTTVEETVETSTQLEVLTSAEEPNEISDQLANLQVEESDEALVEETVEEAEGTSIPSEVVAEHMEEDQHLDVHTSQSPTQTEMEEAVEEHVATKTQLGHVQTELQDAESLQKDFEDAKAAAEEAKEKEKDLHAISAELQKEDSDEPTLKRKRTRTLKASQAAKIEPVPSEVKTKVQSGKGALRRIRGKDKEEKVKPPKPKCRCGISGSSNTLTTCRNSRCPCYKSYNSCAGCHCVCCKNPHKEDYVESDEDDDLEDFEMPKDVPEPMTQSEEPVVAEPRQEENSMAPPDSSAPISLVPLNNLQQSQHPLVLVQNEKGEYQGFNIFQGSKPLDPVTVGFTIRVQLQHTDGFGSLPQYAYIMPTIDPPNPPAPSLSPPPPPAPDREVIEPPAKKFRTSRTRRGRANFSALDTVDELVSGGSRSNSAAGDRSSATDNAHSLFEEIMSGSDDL

## CLAMP-ΔZF1-FLAG (from UniProt Q9V9N4 1-561) (natural protein)
  percent co-immunoprecipitated (bound fraction normalised to input): < 1%
